In patent US9976134B2, “Thermolysin variants” (Danisco US Inc., priority 2007, dated 2018):

Legend:
[1] = Stability assay in 25% TIDE 2X detergent with DTPA (residual Abz-AGLA-Nba protease activity); format: physicochemical; settings: 60 min at 32°C; variant residual AGLA activity divided by wild-type residual activity
Outline: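 Thermolysin variant culture supernatants stressed in TIDE 2× detergent, with or without DTPA: 60 min at 32° C or 180 min at 50° C. Residual versus unstressed activity on Abz-AGLA-Nba read kinetically at 25° C (Ex 350/Em 420). Performance index is variant residual activity divided by wild-type thermolysin residual activity.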

[2] = TIDE 2X 0.78 g/l, 6 gpg, pH 8.2, 30 min at 20°C, A405; variant vs wild-type thermolysin at same protein concentration
Procedure: Thermolysin containing protease samples were obtained from filtered broth of cultures grown in microtiter plates for 3 days at 37° C. with shaking at 280 rpm under humidified aeration.
• Thermolysin containing culture supernatants (˜100-200 μg protein per ml) • TIDE® 2× (nil enzymes) detergent (P&G) • Dilution Buffer (10 mM NaCl, 0.1 mM CaCl2, 0.005% TWEEN®-80) The equipment used was a Biomek FX Robot (Beckman Coulter), a SpectraMAX MTP Reader (type 340; Molecular Devices), and an iEMS incubator/shaker (Thermo/Labsystems). MTPs were obtained from Costar (type 9017). TIDE® 2× Liquid Detergent Preparation (US Conditions):
Milli-Q water was adjusted to 6 gpg water hardness using a (Ca/Mg 3:1) hardness stock solution (282.3 g/L CaCl2.2H20, 130.1 g/L MgCl2.6H2O), 0.78 g/1 detergent TIDE® 2× was added, and the detergent solution was stirred vigorously for at least 15 minutes. Then, 5 mM HEPES was added and the pH adjusted to 8.2.
Microswatches of ¼ inch circular diameter were obtained from CFT (Vlaardingen, The Netherlands).
Two microswatches were placed vertically into each well of a 96-well microtiter plate to expose the whole surface area (i.e., not flat on the bottom of the well).
The incubator was set to 20° C. The filtered culture broth samples were tested at an appropriate concentration by dilution with a mixture of 10 mM NaCl, 0.1 mM CaCl2, 0.005% TWEEN®-80 solution. The detergent solution was prepared as described above. Then, 190 μl of detergent solution were added to each well of the MTP, containing microswatches. To this mixture, 10 μl of diluted enzyme solution were added to each well (to provide a total volume of 200 μl/well). The MTP was covered with a plate seal and placed in an incubator for 30 minutes at 20° C., with agitation at 1400 rpm (iEMS incubator). Following incubation under the appropriate conditions, 100 μl of solution from each well was removed and placed into a new MTP. Subsequently this MTP, containing 100 μl of solution/well, was read at 405 nm in a MTP-Reader. Blank controls, containing 2 microswatches/well and detergent, without the addition of thermolysin containing samples, were also included in the test.
The observed absorbance value was corrected for the blank value (obtained after incubation of microswatches in the absence of added enzyme). The resulting absorbance was a measure for the hydrolytic activity. For each sample (thermolysin or a variant) the performance index (PI) was calculated. The performance index is a comparison of the performance of the variant (actual value) and the standard thermolysin enzyme (theoretical value) at the same protein concentration. In addition, the theoretical values were calculated, using the parameters of the Langmuir equation of the standard enzyme.
C. Stability Assay in the Presence of Detergent
In this example, experiments were conducted to determine the stain removal performance of various singly substituted thermolysin (also referred to herein as Proteinase-T or PrT) variants. As described in Example 1, the stain cleaning performance of thermolysin variants was done utilizing a blood/milk/ink (BMI) microswatch assay. Briefly the cleaning performance of chosen single-substitution thermolysin variants was assessed in a TIDE® 2× microswatch assay.

[3] = Stability assay in 25% TIDE 2X detergent without DTPA (residual Abz-AGLA-Nba protease activity); format: physicochemical; settings: 180 min at 50°C; variant residual AGLA activity divided by wild-type residual activity
Procedure: The stability of thermolysin and variants thereof was measured after incubation under defined conditions in the presence of 25% TIDE® 2× detergent. The initial and residual activity was determined.
MTPs were obtained from Costar (type 9017) and from Greiner (black plate, type 655076). Test Method Unstressed Conditions:
First, 20 μl thermolysin containing culture supernatant was diluted with 180 μl MES assay buffer. Then, 20 μl diluted supernatant was diluted further with 180 μl MES assay buffer. Subsequently 10 μl of this dilution was transferred into 190 μl AGLA-substrate solution in a pre-warmed plate (Greiner 655076) at 25° C. Any air bubbles present were blown away and the plate was measured according to the AGLA protease assay protocol described below.
First, 20 μl of culture supernatant was diluted with 180 μl 27.5% TIDE®+detergent solution and placed in the iEMS shaker. The plate covered with a plate seal was incubated for a total of 60 minutes at 32° C. at 900 rpm. In addition, 20 μl of culture supernatant was diluted with 180 μl 27.5% TIDE®−solution and placed in the iEMS shaker. This plate covered with a plate seal was incubated for a total of 180 minutes at 50° C. at 900 rpm.
Subsequently after the respective incubations, 20 μl of either of these solutions were diluted with 180 μl MES assay buffer and 10 μl of this dilution were diluted with 190 μl AGLA-substrate solution in a pre-warmed plate (Greiner 655076) at 25° C.
Fluorescence measurements were taken at excitation of 350 nm and emission of 420 nm. The spectrofluorometer software calculated the reaction rates (=slope) of the increase in fluorescence for each well to a linearly regressed line of (milli-) RFU/min. The ratio of the residual and initial AGLA activity was used to express the 25% TIDE® 2× stability as follows: Percentage of residual activity=[slope of stressed]*100/[slope of unstressed]
For each sample (thermolysin and variants thereof) the performance index was calculated by dividing the residual activity of the variant by the residual activity of thermolysin. The performance index compared the stability of the variant and the standard thermolysin enzyme (e.g., wild type or parental enzyme), determined under the same conditions.
In these experiments, the liberation of Abz-AG by protease cleavage of Abz-AGLA-Nba was monitored by fluorescence spectrometry (Ex. 350/Em. 420). The rate of appearance of Abz-AG was a measure of proteolytic activity.
The Abz-AGLA-Nba assay solution was prepared by adding 1 ml of the Abz-AGLA-Nba stock to 19 ml MES substrate buffer and mixed well for at least 2 minutes. Subsequently the thermolysin or variants thereof containing culture supernatants were diluted with MES assay buffer to a concentration of 1-6 μg protein per ml.
The assay was performed by adding 10 μl of diluted protease solution to each well, followed by the addition of 190 μl Abz-AGLA-Nba assay solution that was pre-equilibrated for at least 15 minutes at 25° C. The solutions were vigorously mixed, and the liberation of Abz-AG by protease cleavage of Abz-AGLA-Nba was monitored by fluorescence spectrometry at 25° C. in kinetic mode with excitation set at 350 nm and emission set at 420 nm. The rate of appearance of Abz-AG was a measure of proteolytic activity in the samples. The protease activity was expressed as RFU (relative fluorescence units·min^−1).
As described in Example 1, the stability of thermolysin variants was measured by determining the AGLA activity before and after incubation in the presence of TIDE® 2× heavy duty liquid (HDL) detergent at an elevated temperature. The tables contain the relative stability values compared to wild-type thermolysin, which is the quotient of the variant residual activity divided by the wild-type residual activity. A value greater than one indicates higher stability in the presence of detergent. […]

B1: I156T: single-substitution thermolysin variant (SEQ ID NO:3 numbering) (protein, listed as Geobacillus caldoproteolyticus)
chain: ITGTSTVGVGRGVLGDQKNINTTYSTYYYLQDNTRGNGIFTYDAKYRTTLPGSLWADADNQFFASYDAPAVDAHYYAGVTYDYYKNVHNRLSYDGNNAAIRSSVHYSQGYNNAFWNGSQMVYGDGDGQTFIPLSGGIDVVAHELTHAVTDYTAGLTYQNESGAINEAISDIFGTLVEFYANKNPDWEIGEDVYTPGISGDSLRSMSDPAKYGDPDHYSKRYTGTQDNGGVHINSGIINKAAYLISQGGTHYGVSVVGIGRDKLGKIFYRALTQYLTPTSNFSQLRAAAVQSATDLYGSTSQEVASVKQAFDAVGVK
In the case of B1, the “PI (relative stability), 25% TIDE 2X with DTPA” value [1] is reported as 1.08 and the “PI (performance index), stain removal” value [2] is reported as 1.03.

B2: T049L: single-substitution thermolysin variant (SEQ ID NO:3 numbering) (protein, listed as Geobacillus caldoproteolyticus)
chain: ITGTSTVGVGRGVLGDQKNINTTYSTYYYLQDNTRGNGIFTYDAKYRTLLPGSLWADADNQFFASYDAPAVDAHYYAGVTYDYYKNVHNRLSYDGNNAAIRSSVHYSQGYNNAFWNGSQMVYGDGDGQTFIPLSGGIDVVAHELTHAVTDYTAGLIYQNESGAINEAISDIFGTLVEFYANKNPDWEIGEDVYTPGISGDSLRSMSDPAKYGDPDHYSKRYTGTQDNGGVHINSGIINKAAYLISQGGTHYGVSVVGIGRDKLGKIFYRALTQYLTPTSNFSQLRAAAVQSATDLYGSTSQEVASVKQAFDAVGVK
For B2, the “PI (relative stability), 25% TIDE 2X with DTPA” value [1] was 1.02 and the “PI (performance index), stain removal” value [2] was 1.25.

B3: I156W: single-substitution thermolysin variant (SEQ ID NO:3 numbering) (protein, listed as Geobacillus caldoproteolyticus)
chain: ITGTSTVGVGRGVLGDQKNINTTYSTYYYLQDNTRGNGIFTYDAKYRTTLPGSLWADADNQFFASYDAPAVDAHYYAGVTYDYYKNVHNRLSYDGNNAAIRSSVHYSQGYNNAFWNGSQMVYGDGDGQTFIPLSGGIDVVAHELTHAVTDYTAGLWYQNESGAINEAISDIFGTLVEFYANKNPDWEIGEDVYTPGISGDSLRSMSDPAKYGDPDHYSKRYTGTQDNGGVHINSGIINKAAYLISQGGTHYGVSVVGIGRDKLGKIFYRALTQYLTPTSNFSQLRAAAVQSATDLYGSTSQEVASVKQAFDAVGVK
For B3, the “PI (relative stability), 25% TIDE 2X with DTPA” value [1] was 1.12 and the “PI (performance index), stain removal” value [2] was 1.16.

B4: T049Q: single-substitution thermolysin variant (SEQ ID NO:3 numbering) (protein, listed as Geobacillus caldoproteolyticus)
chain: ITGTSTVGVGRGVLGDQKNINTTYSTYYYLQDNTRGNGIFTYDAKYRTQLPGSLWADADNQFFASYDAPAVDAHYYAGVTYDYYKNVHNRLSYDGNNAAIRSSVHYSQGYNNAFWNGSQMVYGDGDGQTFIPLSGGIDVVAHELTHAVTDYTAGLIYQNESGAINEAISDIFGTLVEFYANKNPDWEIGEDVYTPGISGDSLRSMSDPAKYGDPDHYSKRYTGTQDNGGVHINSGIINKAAYLISQGGTHYGVSVVGIGRDKLGKIFYRALTQYLTPTSNFSQLRAAAVQSATDLYGSTSQEVASVKQAFDAVGVK
In the case of B4, the “PI (relative stability), 25% TIDE 2X without DTPA” value [3] is reported as 1.07 and the “PI (performance index), stain removal” value [2] is reported as 1.30.

B5: Q273Y: single-substitution thermolysin variant (SEQ ID NO:3 numbering) (protein, listed as Geobacillus caldoproteolyticus)
chain: ITGTSTVGVGRGVLGDQKNINTTYSTYYYLQDNTRGNGIFTYDAKYRTTLPGSLWADADNQFFASYDAPAVDAHYYAGVTYDYYKNVHNRLSYDGNNAAIRSSVHYSQGYNNAFWNGSQMVYGDGDGQTFIPLSGGIDVVAHELTHAVTDYTAGLIYQNESGAINEAISDIFGTLVEFYANKNPDWEIGEDVYTPGISGDSLRSMSDPAKYGDPDHYSKRYTGTQDNGGVHINSGIINKAAYLISQGGTHYGVSVVGIGRDKLGKIFYRALTYYLTPTSNFSQLRAAAVQSATDLYGSTSQEVASVKQAFDAVGVK
With B5 the “PI (relative stability), 25% TIDE 2X with DTPA” value [1] was 1.05 and the “PI (performance index), stain removal” value [2] was 1.09.

B6: T278M: single-substitution thermolysin variant (SEQ ID NO:3 numbering) (protein, listed as Geobacillus caldoproteolyticus)
chain: ITGTSTVGVGRGVLGDQKNINTTYSTYYYLQDNTRGNGIFTYDAKYRTTLPGSLWADADNQFFASYDAPAVDAHYYAGVTYDYYKNVHNRLSYDGNNAAIRSSVHYSQGYNNAFWNGSQMVYGDGDGQTFIPLSGGIDVVAHELTHAVTDYTAGLIYQNESGAINEAISDIFGTLVEFYANKNPDWEIGEDVYTPGISGDSLRSMSDPAKYGDPDHYSKRYTGTQDNGGVHINSGIINKAAYLISQGGTHYGVSVVGIGRDKLGKIFYRALTQYLTPMSNFSQLRAAAVQSATDLYGSTSQEVASVKQAFDAVGVK
In the case of B6, the “PI (relative stability), 25% TIDE 2X with DTPA” value [1] is reported as 1.09 and the “PI (performance index), stain removal” value [2] is reported as 1.02.
